The results in this text go back to patent US20160250128A1 (INFINITEC ACTIVOS S L, published 2016).

B1: Pamitoyl-Ser-Tyr-Ser-Nle-Glu-His-DPhe-Arg-(L-3,4-dihydroxyphenylalanine)-Gly-Lys-DPro-Val-NH-(CH2)3-(OCH2CH2)2-CH2-NH2, coupled to capsules (peptide)
peptide: SYSXEHFRXGKPV
modifications: N-terminal palmitoyl; Nle at 4 (X); D-Phe at 7; L-3,4-dihydroxyphenylalanine at 9 (X); D-Pro at 12; C-terminal NH-(CH2)3-(OCH2CH2)2-CH2-NH2
notes: Coupled to the outer surface of fluorescent polymer capsules in the assay; also called peptide of formula (I), AA1 = L-3,4-dihydroxyphenylalanine
B2: Pamitoyl-Ser-Tyr-Ser-Nle-Glu-His-DPhe-Arg-His-Gly-Lys-DPro-Val-NH-(CH2)3-(OCH2CH2)2-CH2-NH2, coupled to capsules (peptide)
peptide: SYSXEHFRHGKPV
modifications: N-terminal palmitoyl; Nle at 4 (X); D-Phe at 7; D-Pro at 12; C-terminal NH-(CH2)3-(OCH2CH2)2-CH2-NH2
notes: Coupled to the outer surface of fluorescent polymer capsules in the assay; Stereochemistry of the residue at 9 is not specified; also called peptide of formula (I), AA1 = Histidine
B3: Pamitoyl-Ser-Tyr-Ser-Nle-Glu-His-DPhe-Arg-Phe-Gly-Lys-DPro-Val-NH-(CH2)3-(OCH2CH2)2-CH2-NH2, coupled to capsules (peptide)
peptide: SYSXEHFRFGKPV
modifications: N-terminal palmitoyl; Nle at 4 (X); D-Phe at 7; D-Pro at 12; C-terminal NH-(CH2)3-(OCH2CH2)2-CH2-NH2
notes: Coupled to the outer surface of fluorescent polymer capsules in the assay; Stereochemistry of the residue at 9 is not specified; also called peptide of formula (I), AA1 = Phenylalanine
B4: Pamitoyl-Ser-Tyr-Ser-Nle-Glu-His-DPhe-Arg-Tyr-Gly-Lys-DPro-Val-NH-(CH2)3-(OCH2CH2)2-CH2-NH2, coupled to capsules (peptide)
peptide: SYSXEHFRYGKPV
modifications: N-terminal palmitoyl; Nle at 4 (X); D-Phe at 7; D-Pro at 12; C-terminal NH-(CH2)3-(OCH2CH2)2-CH2-NH2
notes: Coupled to the outer surface of fluorescent polymer capsules in the assay; Stereochemistry of the residue at 9 is not specified; also called peptide of formula (I), AA1 = Tyrosine
B5: Pamitoyl-Ser-Tyr-Ser-Nle-Glu-His-DPhe-Arg-(5-hydroxytryptophan)-Gly-Lys-DPro-Val-NH-(CH2)3-(OCH2CH2)2-CH2-NH2, coupled to capsules (peptide)
peptide: SYSXEHFRXGKPV
modifications: N-terminal palmitoyl; Nle at 4 (X); D-Phe at 7; 5-hydroxytryptophan at 9 (X); D-Pro at 12; C-terminal NH-(CH2)3-(OCH2CH2)2-CH2-NH2
notes: Coupled to the outer surface of fluorescent polymer capsules in the assay; also called peptide of formula (I), AA1 = 5-hydroxytryptophan
B6: Pamitoyl-Ser-Tyr-Ser-Nle-Glu-His-DPhe-Arg-(3-amino-3-(1-naphthyl) propionic acid)-Gly-Lys-DPro-Val-NH-(CH2)3-(OCH2CH2)2-CH2-NH2, coupled to capsules (peptide)
peptide: SYSXEHFRXGKPV
modifications: N-terminal palmitoyl; Nle at 4 (X); D-Phe at 7; 3-amino-3-(1-naphthyl) propionic acid at 9 (X); D-Pro at 12; C-terminal NH-(CH2)3-(OCH2CH2)2-CH2-NH2
notes: Coupled to the outer surface of fluorescent polymer capsules in the assay; also called peptide of formula (I), AA1 = 3-amino-3-(1-naphthyl) propionic acid
B7: Pamitoyl-Ser-Tyr-Ser-Nle-Glu-His-DPhe-Arg-(3-amino-3-(biphenyl) propionic acid)-Gly-Lys-DPro-Val-NH-(CH2)3-(OCH2CH2)2-CH2-NH2, coupled to capsules (peptide)
peptide: SYSXEHFRXGKPV
modifications: N-terminal palmitoyl; Nle at 4 (X); D-Phe at 7; 3-amino-3-(biphenyl) propionic acid at 9 (X); D-Pro at 12; C-terminal NH-(CH2)3-(OCH2CH2)2-CH2-NH2
notes: Coupled to the outer surface of fluorescent polymer capsules in the assay; also called peptide of formula (I), AA1 = 3-amino-3-(biphenyl) propionic acid
B8: Pamitoyl-Ser-Tyr-Ser-Nle-Glu-His-DPhe-Arg-(3-(2-Naphthyl)-D-alanine)-Gly-Lys-DPro-Val-NH-(CH2)3-(OCH2CH2)2-CH2-NH2, coupled to capsules (peptide)
peptide: SYSXEHFRXGKPV
modifications: N-terminal palmitoyl; Nle at 4 (X); D-Phe at 7; 3-(2-Naphthyl)-D-alanine at 9 (X); D-Pro at 12; C-terminal NH-(CH2)3-(OCH2CH2)2-CH2-NH2
notes: Coupled to the outer surface of fluorescent polymer capsules in the assay; also called peptide of formula (I), AA1 = 3-(2-Naphthyl)-D-alanine
B9: Ac-Ile-Ser-Leu-Leu-Asp-(d)Ala-Gln-Ser-NH2 (peptide)
peptide: ISLLDAQS
HELM: PEPTIDE1{[ac].I.S.L.L.D.[dA].Q.S.[am]}$$$$V2.0
SMILES: CC[C@H](C)[C@H](NC(C)=O)C(=O)N[C@@H](CO)C(=O)N[C@@H](CC(C)C)C(=O)N[C@@H](CC(C)C)C(=O)N[C@@H](CC(=O)O)C(=O)N[C@H](C)C(=O)N[C@@H](CCC(N)=O)C(=O)N[C@@H](CO)C(N)=O
B10: Palm-Ile-Ser-Leu-Leu-Asp-Ala-Gln-Ser-NH2 (peptide)
peptide: ISLLDAQS
HELM: PEPTIDE1{[CCCCCCCCCCCCCCCC(=O)[*:2]].I.S.L.L.D.A.Q.S.[am]}$$$$V2.0
SMILES: CCCCCCCCCCCCCCCC(=O)N[C@H](C(=O)N[C@@H](CO)C(=O)N[C@@H](CC(C)C)C(=O)N[C@@H](CC(C)C)C(=O)N[C@@H](CC(=O)O)C(=O)N[C@@H](C)C(=O)N[C@@H](CCC(N)=O)C(=O)N[C@@H](CO)C(N)=O)[C@@H](C)CC
B11: Palm-Ile-Ser-Leu-Leu-Asp-(d)Ala-Gln-Ser-NH2 (peptide)
peptide: ISLLDAQS
HELM: PEPTIDE1{[CCCCCCCCCCCCCCCC(=O)[*:2]].I.S.L.L.D.[dA].Q.S.[am]}$$$$V2.0
SMILES: CCCCCCCCCCCCCCCC(=O)N[C@H](C(=O)N[C@@H](CO)C(=O)N[C@@H](CC(C)C)C(=O)N[C@@H](CC(C)C)C(=O)N[C@@H](CC(=O)O)C(=O)N[C@H](C)C(=O)N[C@@H](CCC(N)=O)C(=O)N[C@@H](CO)C(N)=O)[C@@H](C)CC
B12: Ac-Ile-Ser-(d)Leu-Leu-Asp-(d)Ala-Gln-Ser-NH2 (peptide)
peptide: ISLLDAQS
HELM: PEPTIDE1{[ac].I.S.[dL].L.D.[dA].Q.S.[am]}$$$$V2.0
SMILES: CC[C@H](C)[C@H](NC(C)=O)C(=O)N[C@@H](CO)C(=O)N[C@H](CC(C)C)C(=O)N[C@@H](CC(C)C)C(=O)N[C@@H](CC(=O)O)C(=O)N[C@H](C)C(=O)N[C@@H](CCC(N)=O)C(=O)N[C@@H](CO)C(N)=O
B13: Palm-Ile-Ser-(d)Leu-Leu-Asp-(d)Ala-Gln-Ser-NH2 (peptide)
peptide: ISLLDAQS
HELM: PEPTIDE1{[CCCCCCCCCCCCCCCC(=O)[*:2]].I.S.[dL].L.D.[dA].Q.S.[am]}$$$$V2.0
SMILES: CCCCCCCCCCCCCCCC(=O)N[C@H](C(=O)N[C@@H](CO)C(=O)N[C@H](CC(C)C)C(=O)N[C@@H](CC(C)C)C(=O)N[C@@H](CC(=O)O)C(=O)N[C@H](C)C(=O)N[C@@H](CCC(N)=O)C(=O)N[C@@H](CO)C(N)=O)[C@@H](C)CC

The target of one assay is T1, Melanocortin receptor 1 (MC1R) on melanocytes (human, UniProt Q01726 1-317).
T1 construct: whole, on cells; also called MC1 receptor; MCR1 receptors on the melanocyte
T1 sequence (Q01726 whole entry): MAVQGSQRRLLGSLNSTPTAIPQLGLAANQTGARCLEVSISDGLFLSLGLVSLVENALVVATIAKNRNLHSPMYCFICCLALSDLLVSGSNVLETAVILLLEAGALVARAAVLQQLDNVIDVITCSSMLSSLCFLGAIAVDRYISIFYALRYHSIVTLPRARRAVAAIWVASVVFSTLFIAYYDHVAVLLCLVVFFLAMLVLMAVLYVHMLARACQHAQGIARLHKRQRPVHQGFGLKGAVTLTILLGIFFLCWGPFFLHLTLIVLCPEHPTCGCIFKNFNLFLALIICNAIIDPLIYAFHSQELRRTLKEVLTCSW
In words: flow cytometry, cell-associated fluorescence of peptide-targeted capsules (50 µg/mL, 37° C., 3 h) on melanocytes in a mixed cell population. Here is the method:
Distinct types of cells were incubated with the capsules of the invention (50 μg/mL) which have been targeted with different peptides of formula (Ia) or non-targeted capsules (50 μg/mL) at 37° C. for 3 h. The peptides of formula (I) used to target the capsules in this example are peptides of formula Pamitoyl-Ser-Tyr-Ser-Nle-Glu-His-DPhe-Arg-(AA₁)-Gly-Lys-DPro-Val-NH—(CH₂)₃—(OCH₂CH₂)₂—CH₂—NH₂ wherein the nature of the aminoacid in position 9 (AA₁) is indicated in the first column of table 3. Cells were washed and stained with receptor-specific antibody or isotype control antibody to specifically detect distinct types of cells. Subsequently, cells were analyzed by flow cytometry on a FacsCalibur. The cell associated fluorescence was calculated by dividing the mean cell fluorescence intensity (mfi) for a given sample by the mfi of melanocytes incubated with targeted capsules, which was set at 100% (see FIG. 5 and table 4).
For orientation: In flow cytometry, cells or beads pass a laser one at a time.
Regarding B1, the “Cell specific binding (%)” value was determined as 80%.
With B2, the “Cell specific binding (%)” value amounted to 58%.
Take B3: the “Cell specific binding (%)” value is 85%.
Take B4: the “Cell specific binding (%)” value came to 80%.
In the case of B5, the “Cell specific binding (%)” value turned out to be 73%.
The same measure, in the same setting: for B6 the value was 75%.
The same measure, in the same setting: for B7 the value was 74%; for B8, 71%.

Another assay concerns the target Mushroom Tyrosinase (mushroom). In words: cell-based or functional assay.
B9: the “% INHIBITION TYROSINASE” value turned out to be 31%.
The same measure, in the same setting: for B10 the value was 39%; for B11, 42%.
In the case of Ac-ISLLDAQS-NH2 [Ac-Ile-Ser-Leu-Leu-Asp-Ala-Gln-Ser-NH2], the “% INHIBITION TYROSINASE” value is 28%.
On to B12, for which the “% INHIBITION TYROSINASE” value is 40%.
Still for that read-out and setting: the same measure for B13: 48%.
